Source: patent publication CN114106166A (VIRUS DISEASE PREVENTION AND CONTROL PLACE OF CHINESE …, dated 2022)

What was measured:
新型冠状病毒Omicron变体RBD蛋白 = target: T1, 新型冠状病毒Omicron变体RBD蛋白 (SARS-CoV-2 Omicron variant, UniProt P0DTC2 319-541); assay: SPR, BIAcore 8000, RBD protein coupled to the chip, 1:1 binding fit
T1 construct: domain: RBD

新型冠状病毒Delta变体RBD蛋白 = target: T2, 新型冠状病毒Delta变体RBD蛋白 (SARS-CoV-2 Delta variant, UniProt P0DTC2 319-541); assay: as above
T2 construct: domain: RBD; also called 新冠Delta变体RBD蛋白

B1: 人源抗新冠病毒中和性抗体D2 (全抗体IgG) (antibody, V domains shown)
VH: EVQLVESGGGLVQPGRSLTLSCGASGFTFEDYAMHWVRQAPGKGLEWVSGIDWNSGVIGYADSVKGRFIISRDNAKNSLYLHMRSLTAEDTALYYCAKDVYSESGSGSYYDYWGQGTLVTVSS
VL: QSVLTQPPSVSAAPGQKVAISCSGSTSNIGDNFVSWYQQFPGTAPKLLLYDDARRPSGIPDRFSGSKSGTSATLGITGLQTGDEAVYFCSTWDNSLNVVLFGGGTKLTVL
notes: also called D2号抗体; 纯化D2抗体
Q: With B1 as the binder, how does the Kd (新型冠状病毒Omicron变体RBD蛋白) read?
A: 0.011 nM

Q: What about the Kd (新型冠状病毒Delta变体RBD蛋白) of the same binder?
A: 0.0621 nM
